Experimental data as given in paper PMC8096270.

Experiments:
[1] = target: Full-length MMTV Gag polypeptide with a C-terminus hexa-histidine tag (Pr77^Gag-His6-tag protein) (mouse mammary tumor virus (MMTV)); experiment: dynamic light scattering; Pr77^Gag in storage buffer (50 mM Tris-HCl pH 8.0, 1 M NaCl), 20°C; mean hydrodynamic radius based on number distribution
[2] = system: Pr77Gag (Gag precursor polyprotein) (Mouse mammary tumor virus (strain not stated; HYB-MTV?)); experiment: EMSA; settings: competition, filter binding: 30 mM Tris pH 7.5, 300 mM NaCl, 5 mM MgCl2, DTT (10 mM in protein diluent), 0.01% Triton X-100, BSA, 37 C 30 min then ice …

Full-length MMTV Gag polypeptide with a C-terminus hexa-histidine tag (Pr77^Gag-His6-tag protein) (natural protein)
stoichiometry N [1]: 3

WT unspliced gRNA nt 1-712 (SA35)
Kd [2]: 480 nM
